The record followed here is patent US20190161555A1 (ALLIGATOR BIOSCIENCE, published 2019).

The chains are these.
B1: 1482/1483 (antibody, V domains shown)
VH: EVQLLESGGGLVQPGGSLRLSCAASGFTFSSYAMSWVRQAPGKGLEWVSYISYYSGYTYYADSVKGRFTISRDNSKNTLYLQMNSLRAEDTAVYYCARGYGYLDYWGQGTLVTVSS
VL: DIQMTQSPSSLSASVGDRVTITCRASQSISSYLNWYQQKPGKAPKLLIYAASSLQSGVPSRFSGSGSGTDFTLTISSLQPEDFATYYCQQYGSLLTFGQGTKLEIK
notes: OX40 antibody, tested as IgG
B2: 1168/1135 (antibody, V domains shown)
VH: EVQLLESGGGLVQPGGSLRLSCAASGFTFSGSSMSWVRQAPGKGLEWVSSISYYGGYTYYADSVKGRFTISRDNSKNTLYLQMNSLRAEDTAVYYCARYFPHYYFDYWGQGTLVTVSS
VL: not shown
notes: OX40 antibody, tested as IgG
B3: 1490/1135 (antibody, V domains shown)
VH: B2 VH with G31S, S32Y, S33A, S50G, F100Y, Y103H, F105I
VL: not shown
notes: OX40 antibody, tested as IgG
B4: 1542/1135 (antibody, V domains shown)
VH: EVQLLESGGGLVQPGGSLRLSCAASGFTFGSSSMYWVRQAPGKGLEWVSGIGYYSYSTSYADSVKGRFTISRDNSKNTLYLQMNSLRAEDTAVYYCARGYPHHYFDYWGQGTLVTVSS
VL: not shown
notes: OX40 antibody, tested as IgG
B5: 1170/1171 (antibody, V domains shown)
VH: EVQLLESGGGLVQPGGSLRLSCAASGFTFGGYYMSWVRQAPGKGLEWVSYIPGSGGSTYYADSVKGRFTISRDNSKNTLYLQMNSLRAEDTAVYYCARYDYYWMDYWGQGTLVTVSS
VL: DIQMTQSPSSLSASVGDRVTITCRASQSISSYLNWYQQKPGKAPKLLIYAASSLQSGVPSRFSGSGSGTDFTLTISSLQPEDFATYYCQQGHGSYPHTFGQGTKLEIK
notes: OX40 antibody, tested as IgG
B6: 1526/1527 (antibody, V domains shown)
VH: EVQLLESGGGLVQPGGSLRLSCAASGFTFSGYSMYWVRQAPGKGLEWVSGIGYSGYGTYYADSVKGRFTISRDNSKNTLYLQMNSLRAEDTAVYYCARYYFHDYAAYSLDYWGQGTLVTVSS
VL: B5 VL with G91Y, H92G, G93S, S94D, Y95S, P96L, H97L
notes: OX40 antibody, tested as IgG
B7: 1514/1515 (antibody, V domains shown)
VH: EVQLLESGGGLVQPGGSLRLSCAASGFTFGYYYMSWVRQAPGKGLEWVSGISSYGSYTYYADSVKGRFTISRDNSKNTLYLQMNSLRAEDTAVYYCARSGYSNWANSFDYWGQGTLVTVSS
VL: DIQMTQSPSSLSASVGDRVTITCRASQSISSYLNWYQQKPGKAPKLLIYAASSLQSGVPSRFSGSGSGTDFTLTISSLQPEDFATYYCQQGDYTLFTFGQGTKLEIK
notes: OX40 antibody, tested as IgG

As a reminder, the EC50 is the concentration at which the effect is half-maximal. The term Kd denotes the constant that tells how readily two partners part at equilibrium. A lower Kd goes with a tighter complex. Broadly, the koff is the rate constant with which the complex falls apart. By kon is commonly meant a measure of how fast the partners come together. A low value points to slow association.

Substitutions are numbered along the chain they refer to.

The first test concerns the target T1, murine OX40 (murine, UniProt P47741 20-211, limits assumed).
T1 construct: also called mouse OX40
T1 sequence (looked up): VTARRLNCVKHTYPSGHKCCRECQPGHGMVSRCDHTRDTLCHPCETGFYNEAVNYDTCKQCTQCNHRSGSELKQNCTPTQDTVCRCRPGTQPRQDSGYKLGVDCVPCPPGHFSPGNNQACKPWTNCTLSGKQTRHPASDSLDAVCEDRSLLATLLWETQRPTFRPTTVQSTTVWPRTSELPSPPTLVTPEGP
Briefly: ELISA. (In an ELISA, binding on a coated surface is turned into a signal by an enzyme label.)
For B1, the binding result is on record as “no binding”.
Regarding B2, the binding result is given as “no binding”.
On the same count and under the same terms, next, B3: “no binding”; B4: “no binding”.
With B5, the binding result is recorded as “no binding”.
B6: the binding result is reported as “no binding”.
Still for that read-out and setting: next, B7: “no binding”.

Another test deals with CD40 (Ancell) (UniProt P25942 21-193, limits assumed). Briefly: ELISA, CD40 coated. The method, then: (§1) ELISA plates were coated with human OX40 (R&D Systems, 3388-OX), CD40 (Ancell), or CD137 (R&D Systems) at 0.1 or 0.5 μg/ml. The ELISA plates were washed with PBST and then blocked with PBST+2% BSA for 1 h at room temperature and then washed again with PBST. The antibodies were added in dilution series to the ELISA plates for 1 h at room temperature and then washed with PBST. Binding was detected using goat anti human kappa light chain HRP, incubated for 1 h at room temperature. SuperSignal Pico Luminescent was used as substrate and luminescence was measured using Fluostar Optima.
Chain of CD40 (Ancell) (P25942 21-193 limits assumed): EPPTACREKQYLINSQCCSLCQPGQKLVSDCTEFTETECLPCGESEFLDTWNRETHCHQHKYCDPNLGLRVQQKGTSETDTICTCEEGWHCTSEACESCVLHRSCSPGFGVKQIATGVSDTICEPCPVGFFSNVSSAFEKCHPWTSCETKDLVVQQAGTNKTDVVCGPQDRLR
In the case of B1, the binding result was “no binding”.
For the molecule B2, the binding result was “no binding”.
On the same count and under the same terms, next, B3: “no binding”.
Same read-out and setting: the same measure for B4: “no binding”; for B5: “no binding”.
Regarding B6, the binding result is recorded as “no binding”.
Still for that read-out and setting: next, B7: “no binding”.

For a further test, the target named is CD137 (R&D Systems) (UniProt Q07011 24-186, limits assumed). Briefly: ELISA, CD137 coated. The method, then: as §1
Chain of CD137 (R&D Systems) (Q07011 24-186 limits assumed): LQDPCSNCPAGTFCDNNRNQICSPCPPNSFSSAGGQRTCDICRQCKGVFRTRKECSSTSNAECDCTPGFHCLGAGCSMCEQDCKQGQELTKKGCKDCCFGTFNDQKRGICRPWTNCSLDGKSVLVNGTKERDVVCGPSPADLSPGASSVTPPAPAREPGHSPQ
Consider B1, for which the binding result is recorded as “no binding”.
On the same count and under the same terms, next, B2: “no binding”.
For the molecule B3, the binding result is “no binding”.
Regarding B4, the binding result is “no binding”.
Same read-out and setting: next, B5: “no binding”; B6: “no binding”; B7: “no binding”.

A further test deals with T2, Human OX40 (R&D Systems, 3388-OX) (human, UniProt P43489 29-216).
T2 construct: bought; also called OX40-Fc; Human OX40 (R&D systems, #3358_OX)
T2 sequence (looked up): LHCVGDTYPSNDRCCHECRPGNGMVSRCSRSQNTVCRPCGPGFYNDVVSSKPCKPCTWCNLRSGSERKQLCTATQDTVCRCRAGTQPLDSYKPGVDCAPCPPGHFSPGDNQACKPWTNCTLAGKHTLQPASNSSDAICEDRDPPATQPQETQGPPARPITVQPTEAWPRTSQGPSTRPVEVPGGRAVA
Briefly: ELISA, plates coated with human OX40, IgG. Here is the method:
as §1
The molecule B1 registered an EC50 of less than 1 nM.
Same read-out and setting: the same measure for B2: less than 1 nM; for B4: less than 1 nM.
Molecule B6 displayed an EC50 of less than 1 nM.

In a further test the target is T3, Construct 84: full length OX40 (human, UniProt P43489 29-277).
T3 construct: whole, on cells
T3 sequence (looked up): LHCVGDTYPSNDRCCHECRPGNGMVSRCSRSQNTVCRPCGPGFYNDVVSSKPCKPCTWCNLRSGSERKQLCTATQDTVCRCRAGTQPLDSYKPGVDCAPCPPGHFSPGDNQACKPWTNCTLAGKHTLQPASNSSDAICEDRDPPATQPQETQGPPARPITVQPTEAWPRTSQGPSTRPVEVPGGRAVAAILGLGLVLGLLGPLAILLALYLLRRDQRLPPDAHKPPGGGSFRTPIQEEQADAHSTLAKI
Description: flow cytometry, 293-F cells transfected with the construct. The method, then: The transfected cells were incubated with human OX40 antibodies, human OX40L (hOX40L, RnD Systems), mouse OX40L (mOX40L, RnD Systems) and controls for 30 min 4° C. and then detected with a-huIgG-PE (Jackson Immunoresearch) 30 min 4° C. Cells were analyzed with FACS Verse (BD Biosciences). Binding to the different chimeric constructs were calculated as relative (mean fluorescence intensity) MFI compared to the binding of the isotype control.
For B1, the “relative MFI” value amounted to 24.9 fold over isotype control.
On the same count and under the same terms, the same measure for B2: 29.6 fold over isotype control; for B4: 29.4 fold over isotype control.
Turning to B6, the “relative MFI” value came to 21.4 fold over isotype control.

The target of another test is Macaca mulatta OX40 on HEK cells (Macaca mulatta; human). Briefly: flow cytometry, macOX40-HEK cells; ends of the 95% confidence interval. The method, then:
For the assay, the transfected cells were incubated with the test antibodies and controls for 30 min at 4° C. and then detected with a-huIgG-PE (Jackson Immunoresearch) 30 min 4° C. Cells were analyzed by flow cytometry with FACS Verse (BD Biosciences).
On the technique in general: Flow cytometry measures light scatter and fluorescence of single cells or particles in a stream.
Molecule B1 yielded a concentration giving a half-maximal response (EC50) of 0.157 to 0.312 µg/mL.
On the same count and under the same terms, next, B2: 0.0905 to 0.194 µg/mL; B4: 0.722 to 1.41 µg/mL; B6: 0.292 to 0.589 µg/mL.

The next test deals with T4, human OX40 overexpressed on CHO cells (human, UniProt P43489 29-214; P25942 194-277).
T4 construct: extracellular domain;domain: transmembrane and intracellular part; also called hOX40; huOX40 (CHO)
T4 sequence (looked up): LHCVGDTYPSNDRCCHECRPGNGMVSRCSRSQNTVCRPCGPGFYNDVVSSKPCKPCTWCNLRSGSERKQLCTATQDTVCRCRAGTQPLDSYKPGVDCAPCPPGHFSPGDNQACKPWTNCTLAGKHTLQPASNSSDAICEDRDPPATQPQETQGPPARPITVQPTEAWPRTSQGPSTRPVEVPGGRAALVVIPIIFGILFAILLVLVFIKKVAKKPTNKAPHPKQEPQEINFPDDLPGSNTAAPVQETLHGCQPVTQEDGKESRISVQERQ
Briefly: flow cytometry, cells with human OX40; ends of the 95% confidence interval.
In turn, B1 had an EC50 of 0.082 to 0.182 µg/mL.
Still for that read-out and setting: the same measure for B2: 0.0636 to 0.131 µg/mL; for B4: 0.322 to 0.552 µg/mL.
The same measure, in the same setting: next, B6: 0.172 to 0.429 µg/mL.

For another test, the target named is T2, Human OX40 (R&D Systems, 3388-OX). Briefly: SPR Biacore, human OX40 amine-coupled on CM5, antibody injected, 1:1 Langmuir. The method, then: Human OX40 (R&D systems, #3358_OX) was immobilized to the Biacore™ sensor chip, CM5, using conventional amine coupling. The tested antibodies and controls (serially diluted 1/3 or 1/2 100-2 nM) were analyzed for binding in HBS-P (GE, #BR-1003-68) at a flow rate of […]. The association was followed for 3 minutes and the dissociation for 20 minutes. Regeneration was performed twice using 50 mM NaOH for 60 seconds. The kinetic parameters and the affinity constants were calculated using 1:1 Langmuir model with drifting baseline. […] The kinetic parameters and the affinity constants were calculated using BIAevaluation 4.1 software.
In general terms: SPR reads the build-up and loss of mass on a sensor chip optically.
Molecule B1 came in with a Kd of 0.753 nM, a koff of 0.000584 s⁻¹ and an on-rate (kon) of 776000 M⁻¹ s⁻¹.
On to B2, for which the equilibrium dissociation constant (Kd) came to 0.327 nM, the koff was 0.000169 s⁻¹ and the kon was found to be 518000 M⁻¹ s⁻¹.
On the same counts, the results for B4 are 0.463 nM, 0.0001 s⁻¹ and 216000 M⁻¹ s⁻¹.
On the same counts, the results for B6 are 0.43 nM, 0.000187 s⁻¹ and 435000 M⁻¹ s⁻¹.
